For one molecule, decrease of in vitro binding efficiency against wild-type Fzy results are on record in publication PMC4639866.

This assay addresses GST::BubR1 [1–337] (Drosophila). Briefly: pull-down.

B1: GFP::Fzy-DYY* (natural protein)
chain: MSQFNFVSDLQNALIMDGETRGPAPRWKKKLEASLNGSVNTTRSVLSVSYNTSFSGVQAPTKTPGKSSEGKTKKSNTTPSKTPGGGDRFIPNRAATNFELAHFLVNKDSGDKSDEENDKATSSNSNESNVQASAHKGDRQKLISEVAQVGDSKGGRILCYQNKAPAAPETHNNPLKVVYSIKTPISTKSGSRYIPTTSERILDAPDFINAAALNLMDWSADNIVAVALGSCVYLWNAQTGNIEQLTEFEEGDYAGSLSWIQEGQILAIGNSTGAVELWDCSKVKRLRVMDGHSARVGSLAWNSFLVSSGSRDGTIVHHDVRAREHKLSTLSGHTQEVCGLKWSTDFKYLASGGNDNLVNVWSAASGGVGTATDPLHKFNDHQAAVRALAWCPWQPSTLASGGGTADRCIKFWNVNNGTLMKSVDSKSQVCSLLFSRHYKELISAHGFANNQLTIWKYPTMVKQADLTGHTSRVLQMAMSPDGSTVISAGADETLRLWNCFAPDPLASKKAVSTSKGKQSVFRQSIR
Regarding B1, the decrease of in vitro binding efficiency against wild-type Fzy came out at 50%.
